Test: soluble on expression in E. coli; label from the status in PepcDB or PDB records

Sequence | soluble on expression in E. coli
MSADHDHDHDHDHDHKPAPMVEEVSDFEILEMAVRELAIEKGLFSAEDHRVWKDYVHTLGPLPAARLVAKAWLDPEYKKLCIEDGVEASKAVGVNWVTSPPTQFGTPSDYCNLRVLADSPTLKHVVVCTLCSCYPRPILGQSPEWYRSPNYRRRLVRWPRQVLAEFGLQLPSEVQIRVADSNQKTRYIVMPVRPEGTDGWTEDQLAEIVTRDCLIGVAVPKPGITVNAKRPVLKANRPVHHDH | soluble
MSAICQVTGRQPGYGKSVSHSHRRTSRRWNPNVQRRKFYLPSEGRTITLNVSTKGLKVIDRDGIESVVAKIRARGEKILEHHHHHH | not soluble
MSAKGKHVVVIGGGDTGADCITTSVRHGAKSITQFDINREKSNERPDNNPWPLFPIVHTVEDGHKEAAAVYGKDPRAYQVMTTKFVGDAEGHVKEIHTISVETTVHPDGSKTRVEIPGTEKVWPADLVFLAVGFTGPEEQLVRELELETDTRSNIKAEYGKYETSLEGVFAAGDNRRGQSLVVWAIHEGREAARECDKYLMGLEHHHHHH | not soluble
MSAKPVIVGGGPAGMSAAMELARHGVECVLLDEASRVGGVVYRGPLREGVVLDYLGERYRENMQALHREFEQVRDRIDIRLNTRVVGGGEGELFALTPDERVEAVPFSQLLLAAGCHERSVPFPGWTLPGVIMLGGLQLQIKSGVVKPLGRTVLVGTGPLLPLVACQLHRAGVEVAGVYEASAFGRLAKETIALLNQPQLFLDGLSMVAYLKRHGIPLHYGWGVVEAHGDAELGEVTVAPYDAEWRADLTRSRRLPAQTLAVGYGFIPRTQLTQQMGLEHRYADDGYLKPVNDEWQRSSRGNIHLAGDIGGLRGGEAAMISGRIAALSMLLQLGKLDEQQALRQRQACLDQMASILRFRKGIDSFTRRGRGQLALPARDTVICRCEHATRQDIDTALEQGVNDLISLKMRTRVSMGDCQGKMCVGYCSDRLREHTGKRDVGWIRPRFPLDPLPFSAFSAIDAQQTEEILEHHHHHH | not soluble
MSAKRCASYYNATIKQESDYPELEGDIHVDVTIIGGGFTGVATAVELSEKGYKVALLEANKIAWGATGRNGGQVTGSLSGDAAMTKQLRRHLGQDAEDYVWNLRWRGHDIIKNRVAKYGIDCDLKFGHIQTAYHPGHMQELQQMFDEANRRGMGEFMTLVPAQEMSAYLASPLYHGGLVNRRNMHLHSVNLCLGEARAAASLGAQIFEHSQVLDIQQAELATVVTPKGTVKANSVLIAGNAYHKLGRPKLRGMLFPASLGNCATAKLPEELAKQLNPQNLAVYDCRFVLDYYRLTADNRLMFGGGTNYSGRDPKNVAAELRPAIERTFPQLKGVDIEFAWAGMAGIVINRIPQLGKISPNIFYCQGYSGHGVATSHIMAEIMGQAIDGQMQEFDLFAAMRHIRIPLNEWFGNQALALGMLYYTLRENWRLEHHHHHH | not soluble
MSALSTLKVTFIVSPPSFPCFHTPGPRRKAAPFRFTGQSAYPLWYHGGMAEAFCPVYAALNLLQEKWTLHIIRALLEGPKGFNELSRAVGGVNPATLSQRLDQLVRLGVVEKRVESYMPPRTRYSLTPAGEELEEVVQAIERWARRHLKAPDPAR | soluble
MSAPFEERSGVVPCGTPWGQWYQTLEEVFIEVQVPPGTRAQDIQCGLQSRHVALAVGGREILKGKLFDSTIADEGTWTLEDRKMVRIVLTKTKRDAANCWTSLLESEYAADPWVQDQMQRKLTLERFQKENPGFDFSGAEISGNYTKGGPDFSNLEK | soluble
MSAPLKHPNAVVLQPPTVTISPLIRFGRYAALSLGVVYGFFRLRQIREYHADIREWDHEKAVAAAEEAAKKKKWLAKDEMRYLMQVVNIPFEEGVKQFGVADLYKED | not soluble
MSAPLPPRGRGTASNPLNRFAPTHSEAFDDGWEQDVPPIQLTEVREEIARTVISRNQSPDLPFDRSINPYRGCEHGCIYCYARPSHAYWDLSPGIDFETRLIAKSNVASALEQELSKPGYRCAPINLGANTDPYQPLERERRLTRQVLEVLLRFRHPLTIVTKGSLILRDLDLLRELAEQNLVAVMISLTTLDDELKRILEPRAAAPSARLRAIRTLSGNGIPVGVLCSPMIPMVNDMELERLLQAARDAGARSAAYMLLRLPREVGPLFEEWLAAHYPQRAEHVMSLVRQCRGGEVYDSRFGHRFRGQGPFADLLAQRFAVAMKRLGLDRREGFGLDCSRFAVPGAQMALF | not soluble
MSASAFNFAFRRFWNSETGPKTVHFWAPTLKWGLVFAGLNDIKRPVEKVSGAQNLSLLATALIWTRWSFVIKPKNYLLASVNFFLGCTAGYHLTRIANFRIRNGDSFKQVIHYIIKGETPAAVAAKQTASTSMNKGVIGTNPPITH | soluble
MSATVKPYQEMESGKREQVELMFNNISPKYDLLNRVLSLGIDKIWRKQALNLLKQDKPAHILDVATGTADLAIEAATRLKPTSVVGIDIAEDMLQIGRGKIAKKNLDKIIRLEKGDSEKINFPDNTFDAVIVSFGVRNFEHLEIGLAEIHRVLKPAGSIMVLEFSKPQNAPFKQVYQFYFKNILPTVGKLISKDSAAYTYLPDSVNAFPDGKAFCSILEKTGFTIKHYKPYTFGVCTAYVGKKLEHHHHHH | not soluble
MSAVTYTFLGPQGTFTEAALMQVPGAADATRIPCTNVNTALERVRAGEADAAMVPIENSVEGGVTATLDAIATGQELRIIREALVPITFVLVARPGVELSDIKRISTHGHAWAQCRLWVDEHLPNADYVPGSSTAASAMGLLEDDAPYEAAICAPLIAAEQPGLNVLAEDIGDNPDAVTRFILVSRPGALPERTGADKTTVVVPLPEDHPGALMEILDQFASRGVNLSRIESRPTGQYLGHYFFSIDADGHATDSRVADALAGLHRISPATRFLGSYARADKQPAVVAPHTSDAAFASAHAWVDSILKGS | soluble
MSAYSMLSDRIVMAKELIKRAESLSRSRKGGIEGGAKLCSKLKAELKFLQKIEAGKVAIKESHLQSTNLTHLKAIVESAENLEEVVSVLRVFGYTDTLGEKQTLVVDVVANGGHTWVKAIGRKAEALHNIWLGRGQYGDKSIIEQAEDFLQASRQQPVQYSNPHIVFAFYNSVSSPMADKLKDMGISVRGDIVAVNSLLNHPEEFQLSESESDDEGQELLQVTRVDRDNVLARVAFPTEIKVDVCKKVNLDITTLITYVSAMSYGGCHFVFKEKVLTEQAEQERKERVLPQLEAFMKDKELFACESAVKDFQSILDTLGGPGERERADVLIKRISVVPDQPSERALRLVASSKINSRSLTIFGTGDTLKAITMTANSGFVRAANNQGVKFSVFIHQPRALTESKEAFAVPLPKDLTDDSAH | not soluble
MSCQGPVCTNLGLKPGQRLTVKGIIAPNAKSFVMNLGKDSTHLGLHFNPRFDAHGDVNLIVCNSKKMEEWGTEQRETVFPFQKGAPIEITFSINPSDLTVHLPGHQFSFPNRLGLSVFDYFDTHGDFTLRSVSWE | soluble
MSCRKSAPDQCSIWQSEIGVFKMFITMNRLLRLQIMIPELFLYNETHQGLNNQNVHAVGAYFDQHDPEGLQQVVPLLNEAAANQDVVVIDSMASLVDLYTMDSRGLHEICDLATPFFQLLAHPRISMEVKLLINRLKGVLLTRDAAILQLIIQVYENIAEGDQEAEEADERVKALLAERFGNDI | not soluble
MSCTRRQFITRVGALAAVSGMAGRVVANTLNINGVRYGMVHDESLCIGCTACMDACREVNTVPEGVSRLTIIRSEPQGTFPDVKYRFFRHSCQHCDHAPCVDVCPTGASFRDAASGIVDVNPDLCVGCQYCIAACPYRVRFIHPVSKTADKCDFCRKTNLKAGKQPACVESCPTKALTFGNLDDPNSDISRLLRQKTTYRYKLALGTKPKVYRVPFNYGEVSQ | not soluble
MSDAATRRLMKELAQLKSEAPEGLLVDNTSTSNDLKQWKIGVVGAEGTLYAGEVFMLQFTFGPQYPFNSPEVMFVGETIPAHPHIYSNGHICLSILSDDWTPALSVQSVCLSILSMLSSSKEKKHPIDDAIYVRTCSKNPSKTRWWFHDDSV | not soluble
MSDADPKVPHRGHELLDVLARLGGSARNAQIAQVMDVSEETVRRLVKTLAKQGKVERVHGGTYLRGSQDAPMYSGALEQQPKEKTRIAKGVLELIRDGMTLFINVGSTTTYVAEQLRERRDLTIVTNSISTVASLADHNGSRVFLAGGEVSRSERGCFGRATEDFARRFAYDVLVIGADAMSPELGVLAANPREAELTRALLGNATRVIVAADYRKFSAIAPCIAAPLEAITDLVTDAAPPDALQDALDRCGVATHLAAKSGRITTRTPPPQDVGHSNTNRKTLSFPTEVSLEHHHHHH | soluble
MSDAFLSSIKNRRTIYALDKQLPVSQEKIVELVKEAVSHSPSAFNSQSSRVVVLFGAEHEQFWNIAKDELKKIVPADAFAATETKLNSFAAGAGTVLFFEDQTVVRQLQEQFALYADNFPVWSEQASGMAQFAVWTALAEHKVGASLQHYNPLVDAQTHKTWNLPESWKLRAQMPFGAIAAPAGEKAFIAESERFKVFGN | not soluble
MSDAMPLDQTLEQLTQDEWIDIPQGWSQGRTIYGGLVAGLLMHKALSVMNDESKNLLSTSITFVGPVNEGRVRLTVEILRQGKSVTTIEARLWQDQAVQTILIASFGQPRSSEIFVLEHHHHHH | soluble
MSDKISFLPPEPIQLLDEDSTEPELDIDSQQENEGPISASNSNDSTSHSNDCGATITRTRPRRSSSINANFSFQKAHVSDCTIVNGDHGTKFAVWRITVFLEPNLKAFAAKRESYKIQTYKRYSDFVRLRENLLTRIKTAKPEKLNCLQIPHLPPSVQWYSSWKYQEVNLNKDWLAKRQRGLEYFLNHIILNSSLVEMTKDILIQFLEPSKRVA | soluble
MSDKPEDENTNENPGRRRFLGGMAALGAGVTLSGYVSAHERPPAEAEKHHLVGPALDRALRENVKTVVVIYAENRSFNNLFGNFPGVQKPLSSVRPADYVQRDRNGTLLDKLPPAWGGVLQVGPQTVDGVTYPVGVQFQENLPNAPFPLKGPNAEDLPLSLVTRDLWHVFYQNQMQINDGKNDRFVAWADAGGLTMGNYAQTQYSLRLWDVAKEFVLCDNFFQGAFGGSFLNHQYLISATAPIYPNAADSPAKSQIASLQSMNPLDSRLKPLDKSPASAMEGPPQFGPSAITPDNYAVNTLAPPYWPTWLRDPQNPDYSKPDLANVLVPQSHEHIGDKLSKRNVDWAWYAGAWQVTLDEFKDSTGIPKIPNFQYHHQPFNYFKQQGPQNPEERKKRLRDGGLGDESSTNRFLADAEAGKLPAVAFYKPQGNLNMHAGYADVASGDRHIDRVIKVLRNSPQWDNMVIVVTVDENGGWWDHVAPPKGDRFGPGTRIPALVISPFARKGKVDHTVYDTASILRLITRVHGLEKLDGLKRRDEAMIARGQAPMGDLTNALHFPALEHHHHHH | soluble
MSDNALTSSRRFGGIARLYGDSALAHFSQAHVCVVGVGGVGSWAVEALARTGIGRLTLIDLDNVAESNVNRQLHALTGDFGKAKVTALRERITQINPQCEVFEIEDFVTEDNLPEYFGKGFDFVIDAIDQVRVKAAMAAYFVERKQPFVLSGGAGGQKNPALIQTADLSRVTHDPLLANLRYTLRKRYGFSRDTKANMRVPCVYSTENIVPPQSREACSADAAPQGLSCAGYGASMLVTASFGLYCAQAAVEHIADKKLEHHHHHH | soluble
MSDNAQLSGLCDRFRGFYPVVIDVETAGFNAKTDALLEIAAITLKMDEQGWLMPDMTLHFHVEPFAGANLQPEALAFNGIDPSNPLRGAVSEYEALHAIFKMVRKGIKDSGCSRAIMVAHNATFDHSFMMAAAERASLKRNPFHPFVTFDTAALSGLALGQTVLSKACLAAGMEFDGEKAHSALYDTERTAVLFCEIVNRWKRLGGWPLPLPTDK | not soluble
